Source: publication PMC10397247
One block for each binder: values may come before it.

How the values were obtained:
Test in all cases: two-hybrid library CCNG1;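 further: natural log of median RNA to DNA barcode read ratio; higher means stronger binding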
4H3041-bH = biological target: T1, 4H3041-bH
T1 chain: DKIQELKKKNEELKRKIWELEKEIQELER

4H2859-bH = biological target: T2, 4H2859-bH
T2 chain: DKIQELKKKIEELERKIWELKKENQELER

4H2253-bH = biological target: T3, 4H2253-bH
T3 chain: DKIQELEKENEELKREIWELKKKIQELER

4H56-bH = biological target: T4, 4H56-bH
T4 chain: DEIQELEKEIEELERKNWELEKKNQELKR

4H235-bH = biological target: T5, 4H235-bH
T5 chain: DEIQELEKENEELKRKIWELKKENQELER

4H730-bH = biological target: T6, 4H730-bH
T6 chain: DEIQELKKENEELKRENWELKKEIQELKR

O5 = biological target: T7, O5
T7 chain: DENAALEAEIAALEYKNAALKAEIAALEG

4H3364-bH = biological target: T8, 4H3364-bH
T8 chain: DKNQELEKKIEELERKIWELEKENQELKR

4H932-bH = biological target: T9, 4H932-bH
T9 chain: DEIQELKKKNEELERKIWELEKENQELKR

4H2233-bH = biological target: T10, 4H2233-bH
T10 chain: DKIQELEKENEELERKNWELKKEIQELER

4H949-bH = biological target: T11, 4H949-bH
T11 chain: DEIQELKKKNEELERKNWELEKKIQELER

4H3297-bH = biological target: T12, 4H3297-bH
T12 chain: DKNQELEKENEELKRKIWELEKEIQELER

4H349-bH = biological target: T13, 4H349-bH
T13 chain: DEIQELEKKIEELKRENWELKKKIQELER

4H3381-bH = biological target: T14, 4H3381-bH
T14 chain: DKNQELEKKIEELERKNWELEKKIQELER

4H2931-bH = biological target: T15, 4H2931-bH
T15 chain: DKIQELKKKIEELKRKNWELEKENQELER

4H319-bH = biological target: T16, 4H319-bH
T16 chain: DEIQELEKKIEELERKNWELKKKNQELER

4H2444-bH = biological target: T17, 4H2444-bH
T17 chain: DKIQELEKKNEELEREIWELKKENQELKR

4H796-bH = biological target: T18, 4H796-bH
T18 chain: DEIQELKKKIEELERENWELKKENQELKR

4H264-bH = biological target: T19, 4H264-bH
T19 chain: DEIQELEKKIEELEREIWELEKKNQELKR

4H2585-bH = biological target: T20, 4H2585-bH
T20 chain: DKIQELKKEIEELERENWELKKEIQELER

4H2760-bH = biological target: T21, 4H2760-bH
T21 chain: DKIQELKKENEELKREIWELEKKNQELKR

4H2518-bH = biological target: T22, 4H2518-bH
T22 chain: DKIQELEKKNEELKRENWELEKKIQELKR

P8bH1 = biological target: T23, P8bH1
T23 chain: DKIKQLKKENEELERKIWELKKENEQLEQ

P4bH1 = biological target: T24, P4bH1
T24 chain: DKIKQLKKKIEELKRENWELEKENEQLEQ

P2bH1 = biological target: T25, P2bH1
T25 chain: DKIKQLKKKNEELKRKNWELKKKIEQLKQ

P3bH1 = biological target: T26, P3bH1
T26 chain: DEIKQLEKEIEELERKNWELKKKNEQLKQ

P5bH1 = biological target: T27, P5bH1
T27 chain: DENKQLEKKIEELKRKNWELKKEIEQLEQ

P9bH1 = biological target: T28, P9bH1
T28 chain: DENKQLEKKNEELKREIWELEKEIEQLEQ

P6bH1 = biological target: T29, P6bH1
T29 chain: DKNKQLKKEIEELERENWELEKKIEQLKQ

P7bH1 = biological target: T30, P7bH1
T30 chain: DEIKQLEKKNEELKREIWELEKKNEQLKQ

interaction score (4H3041-bH): -0.641 | interaction score (4H2859-bH): -0.442 | interaction score (4H2253-bH): -0.0513 | interaction score (4H56-bH): -1.28 | interaction score (4H235-bH): -0.93 | interaction score (4H730-bH): -0.961 | interaction score (O5): -1.37 | interaction score (4H3364-bH): -0.899 | interaction score (4H932-bH): -1.01 | interaction score (4H2233-bH): 0.18 | interaction score (4H949-bH): -0.96 | interaction score (4H3297-bH): -0.069 | interaction score (4H349-bH): 0.0715 | interaction score (4H3381-bH): -0.723 | interaction score (4H2931-bH): -0.862 | interaction score (4H319-bH): -0.931 | interaction score (4H2444-bH): -0.446 | interaction score (4H796-bH): -0.815 | interaction score (4H264-bH): -0.0896 | interaction score (4H2585-bH): -0.529 | interaction score (4H2760-bH): -0.804 | interaction score (4H2518-bH): 1.4
Binder: DKIQELEKENEELERKNWELKKEIQELER [4H2233-bH]

interaction score (P8bH1): -0.331 | interaction score (P4bH1): -0.137 | interaction score (P2bH1): -0.432 | interaction score (P3bH1): -0.234 | interaction score (P5bH1): -0.796 | interaction score (P9bH1): 0.693 | interaction score (P6bH1): -1.16 | interaction score (P7bH1): 0.231
Binder: DKIKQLKKKNEELKRKNWELKKKIEQLKQ [P2bH1]
